Data on 1 protein can be found in publication PMC6205632 (Nature structural & molecular biology, 2017).

The series concerns the molecule itself. The series can be described thus: SEC.

B1: MDM2 RING homodimer (MDM2 428-C), tag removed (domain or fragment)
chain: SSLPLNAIEPCVICQGRPKNGCIVHGKTGHLMACFTCAKKLKKRNKPCPVCRQPIQMIVLTYFP
Turning to B1, the binding result is “binds”.
